Reference: patent US5559094A (Eli Lilly and Company, priority 1994, dated 1996)

Experiments:
[1] = Equilibrium ultracentrifugation (aggregation state); format: physicochemical; settings: 0.5 mol of Zn per mol of protein; 20 mM Tris pH 7.8; protein 1.5 to 5 mg/ml
Method: Equilibrium ultracentrifugation data was collected at 22° C. at equally spaced radial intervals using a Beckman Model XLA analytical ultracentrifuge Fullterton, Calif. Standard 30 mm and 12 mm centerpieces along with custom-made 3 mm centerpieces all made from charcoal-filled epon were used. Raw data from the chart recorder was converted to concentration versus radius using the internal calibration factors of the scanner. The weight average molecular weight was calculated according to the equation:
MW=RT/(1-Vp)ω^2.1r.1/C.dC/dr
where R is the gas constant, T is the temperature, ω is the rotor speed, r is the radius, C is the concentration, .rho. is the solvent density, and assuming ideal solutions. […] Least squares smoothing methods were used to calculate C and dC/dr.

[2] = Near- and far-UV circular dichroism; format: physicochemical; settings: mean residue ellipticity, variation of 3%
Method: Protein stock solutions were prepared by dissolving a known mass of protein in either 20 mM Tris or 50 mM sodium phosphate and 50 mM sodium chloride, pH 7.8, followed by zinc oxide addition to a final concentration of 0.5 mol Zn per mol of protein monomer. The pH of the solution was readjusted to pH 7.8 as needed. The protein stock concentrations were determined by UV absorbance using an AVIV model 14DS double-beam spectrophotometer. […] All circular dichroism measurements were obtained using an AVIV Model 62DS spectrometer (Lakewood, N.J.) with results reported as mean residue ellipticity (MRE) having units of deg.cm^2.dmol^-1.
All samples were measured by far-UV CD at 23° C. using a 0.01 cm CD cell. The signal at 224 nm was recorded as a function of either m-cresol or KSCN concentration.
To further explore secondary structure, the far-UV CD spectra were collected from 250 nm to 200 nm using a 0.01 cm cuvette. To gain insight into the environment of the aromatic and disulfide amino acids the near-UV CD spectra were collected from 350 to 250 nm using a 0.1 cm cell.

[3] = α-Helical analysis (CONTIN analysis from the circular dichroism spectra); format: physicochemical
From the text: ^1 Determined by CONTIN analysis from the circular dichroism spectra.

[4] = injection of an acidic solution; cited from earlier work
[5] = from NMR / x-ray crystallography literature; cited from earlier work

Substance	aggregation state (weight average molecular weight) [1]	Circular Dichroism, Wavelength 224 nm [2]	Circular Dichroism, Wavelength 251 nm [2]	Circular Dichroism, Wavelength 276 nm [2]	% Helix Measured [3]	reduction of insulin absorption rate after injection [4]	% Helix Theoretical [5]
Zn-Asp^B1 insulin: Asp^B1 insulin containing 0.5 mol of Zn per mol of protein	hexamer						
Zn + asp^B1 gln^B13 Insulin: asp^B1 gln^B13 insulin sample with Zn		-14555 deg.cm^2.dmol^-1	-426 deg.cm^2.dmol^-1	-291 deg.cm^2.dmol^-1	65%		
Zn + m-cresol + Human Insulin: human insulin sample with Zn and m-cresol [reference compound]		-13488 deg.cm^2.dmol^-1	-425 deg.cm^2.dmol^-1	-335 deg.cm^2.dmol^-1			
gln^B13 analog: literature insulin analog with gln at B13 that forms stable hexamers in the absence of Zn						25%	
Zn + Human Insulin: human insulin sample with Zn [reference compound]		-10892 deg.cm^2.dmol^-1	-121 deg.cm^2.dmol^-1	-305 deg.cm^2.dmol^-1			47%
Zn + m-cresol + asp^B1 gln^B13 Insulin: asp^B1 gln^B13 insulin sample with Zn and m-cresol		-14092 deg.cm^2.dmol^-1	-431 deg.cm^2.dmol^-1	-384 deg.cm^2.dmol^-1	64%		
